# Earlier results, collected in paper PMC6535718.
# Target: Bfd (Pseudomonas aeruginosa) (UniProt Q9HY80)
# Sequence (Q9HY80 whole entry): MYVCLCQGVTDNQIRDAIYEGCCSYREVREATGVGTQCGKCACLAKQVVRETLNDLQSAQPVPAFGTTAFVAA
# Sequence of BfrB (Q9HY79 whole entry): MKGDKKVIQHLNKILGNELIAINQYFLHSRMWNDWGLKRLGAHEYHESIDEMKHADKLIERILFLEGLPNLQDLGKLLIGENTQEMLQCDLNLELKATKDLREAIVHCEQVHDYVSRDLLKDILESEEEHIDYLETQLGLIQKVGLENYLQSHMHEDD
substance,measurement,value
BfrB (from UniProt Q9HY79),Kd,3.4 µM
